Target: T1, human VEGF (human, UniProt P15692 207-395, biotinylated)
T1 construct: also called hVEGF; hVEGF-biotin
T1 sequence: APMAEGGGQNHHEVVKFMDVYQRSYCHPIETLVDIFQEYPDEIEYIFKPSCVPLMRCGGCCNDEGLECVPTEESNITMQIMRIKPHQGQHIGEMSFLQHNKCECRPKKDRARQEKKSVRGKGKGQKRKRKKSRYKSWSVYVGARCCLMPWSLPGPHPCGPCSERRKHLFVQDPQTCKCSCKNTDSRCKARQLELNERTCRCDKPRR
Test: SPR (Biacore), ligand hVEGF-biotin, 25 C

Kd: 5.64 pM
koff: 0.000172 s⁻¹
kon: 3.05e+07 M⁻¹ s⁻¹
B1: NVS1j (Fab)
heavy: EVQLVESGGGLVQPGGSLRLSCTASGFSLTDYYYMTWVRQAPGKGLEWVGFIDPDDDPYYATWAKGRFTISRDNSKNTLYLQMNSLRAEDTAVYYCAGGDHNSGWGLDIWGQGTLVTVSSASTKGPSVFPLAPSSKSTSGGTAALGCLVKDYFPEPVTVSWNSGALTSGVHTFPAVLQSSGLYSLSSVVTVPSSSLGTQTYICNVNHKPSNTKVDKRVEPKSCGS
light: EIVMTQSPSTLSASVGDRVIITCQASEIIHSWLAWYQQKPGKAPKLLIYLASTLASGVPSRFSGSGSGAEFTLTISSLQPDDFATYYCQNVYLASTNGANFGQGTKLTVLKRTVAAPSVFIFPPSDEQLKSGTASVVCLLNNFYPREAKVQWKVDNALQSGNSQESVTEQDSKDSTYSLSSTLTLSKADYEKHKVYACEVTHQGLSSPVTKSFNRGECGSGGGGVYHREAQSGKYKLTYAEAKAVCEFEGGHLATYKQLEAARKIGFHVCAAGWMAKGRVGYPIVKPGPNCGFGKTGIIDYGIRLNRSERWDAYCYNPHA
notes: Tag on the C-terminus of the light chain of NVS4; The heavy chain number is printed as '[9]215'
